Reference: patent publication US20150266975, “RNA-SPECIFIC BINDING ANTIBODY” (Korea Advanced Institute of Science and Technology, published 2015)

Molecular target: T1, MabBC200-A3 (Homo sapiens)
T1 chain 1: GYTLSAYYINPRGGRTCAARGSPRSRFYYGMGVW
T1 chain 2: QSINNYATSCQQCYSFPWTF
Test: filter; room temperature
Settings: hairpin with internal loops

B1: RNA (51-120) (ssRNA)
RNA: GGGAGGCGGGAGGAUAGCUUGAGCCCAGGAGUUCGAGACCUGCCUGGGCAAUAUAGCGAGACCCCGUUCUCCC
In the case of B1, the Kd is reported as ~10 nM.
